Test results: the supplement of paper PMC9732359
± gives the uncertainty stated by the source.

Test: protein stability index of a GFP-peptide fusion (yeast GPS) (PSI 1-4); higher = more stable; sorted into four equal gates, so the index is relative within each strain
Summary of the method: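 Each library plasmid carries Cherry plus GFP with a tiled 17-residue yeast protein peptide fused downstream, and the pooled library was carried in yeast. Mid-log cultures in leucine-free medium were sorted into four equal gates by GFP/Cherry ratio. Reads from Illumina sequencing of PCR-amplified plasmids from each gate were assigned to strains by barcodes. Per peptide, the protein stability index was computed as the summed products of gate read frequency and gate number.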

Sequence | protein stability index (doa10∆) | protein stability index (pdr5∆) | protein stability index (san1∆) | protein stability index (ubr1∆)
SPTSPSYSPTSPSYSPT [RPO21] | 2.74 ± 0.037 | 2.91 ± 0.039 | 2.72 ± 0.036 | 2.82 ± 0.029
LRPGRIDRKVEFSLPDL [RPT1] | 3.19 ± 0.098 | 3.35 ± 0.098 | 3.2 ± 0.16 | 3.18 ± 0.098
EMDSVSKSMKFSRRFDC [CSN9] | 2.56 ± 0.11 | 2.6 ± 0.076 | 2.71 ± 0.054 | 2.85 ± 0.047
RTSATREDTPLSQNEST [ISW2] | 2.99 ± 0.072 | 3.16 ± 0.064 | 2.93 ± 0.062 | 2.96 ± 0.05
TSPEKKDGGDKPPSSAF [YAR002W/NUP60] | 3.42 ± 0.13 | 3.34 ± 0.075 | 3.3 ± 0.081 | 3.72 ± 0.11
NSLLTIVWRFISENTFP [RPC34] | 1.82 ± 0.059 | 2.05 ± 0.042 | 2.08 ± 0.076 | 2.31 ± 0.045
VQDLGSAISVTNVEDPL [SIR2] | 2.34 ± 0.069 | 1.97 ± 0.064 | 2.47 ± 0.13 | 2.21 ± 0.054
EYMVQYIDEMYNHNDGG [RRI1] | 3.03 ± 0.052 | 3.24 ± 0.076 | 3.21 ± 0.14 | 3.19 ± 0.087
EYSYVDSNMDSISSVVS [RPN4] | 2.84 ± 0.075 | 3.26 ± 0.066 | 2.68 ± 0.076 | 3.05 ± 0.043
IARLYSCISISDIISML [RRI2] | 1.37 ± 0.061 | 1.35 ± 0.05 | 1.24 ± 0.093 | 1.17 ± 0.029
TENDIKALQSIGQLIGE [RPT4] | 3.21 ± 0.082 | 3.06 ± 0.095 | 2.74 ± 0.099 | 3.23 ± 0.045
KELQYDNEQNLESDFVT [PRE2] | 2.93 ± 0.092 | 3.16 ± 0.075 | 2.91 ± 0.075 | 3.02 ± 0.055
IQRTTESLILKWDNQSA [RGR1] | 3.14 ± 0.051 | 3.05 ± 0.056 | 2.36 ± 0.059 | 2.94 ± 0.05
DNETKAMLINLILRDFL [RPN3] | 2.55 ± 0.095 | 2.66 ± 0.087 | 2.58 ± 0.069 | 2.81 ± 0.075
IALRNGQSSVKHEDFVE [RPT5] | 2.89 ± 0.19 |  | 3.23 ± 0.14 | 3.41 ± 0.16
KNKKIEVYTKTIEVLDE [POP7] | 2.12 ± 0.11 | 2.78 ± 0.11 | 2.45 ± 0.15 | 2.61 ± 0.14
SELQPQNRSLQEHNIQD [SNF2] | 2.81 ± 0.041 | 3.24 ± 0.05 | 3.08 ± 0.04 | 3.09 ± 0.038
RVGVKLKFNSTEYRGTL [SMX3] | 3.18 ± 0.11 | 3.17 ± 0.07 | 2.87 ± 0.09 | 3.02 ± 0.094
VQKQTRAGQRTRFKAVV [RPS2] | 3.04 ± 0.12 | 3.35 ± 0.14 | 3.31 ± 0.15 | 3.23 ± 0.088
PSTDKNEKKTETNAKPF [YLR335W/NUP2] | 3.32 ± 0.11 | 3.28 ± 0.094 | 3.34 ± 0.044 | 3.33 ± 0.096
TSNWEIYKPLLFEIVSN [SRB8] | 1.59 ± 0.062 | 2.05 ± 0.066 | 2.11 ± 0.14 | 1.23 ± 0.08
QNDILQESFINTMSAWV [FAS2] | 2.14 ± 0.089 | 2.54 ± 0.19 | 2.55 ± 0.074 | 2.28 ± 0.086
YFRILLPYERHMISQEG [SWI1] | 1.37 ± 0.052 | 1.54 ± 0.047 | 1.5 ± 0.097 | 1.6 ± 0.045
RTWYESFCGFLLYYIPS [YJR042W/NUP85] | 1.88 ± 0.055 | 1.43 ± 0.047 | 1.58 ± 0.11 | 1.99 ± 0.057
HPAHVMWSVARAGQRGY [RPL3] | 1.68 ± 0.2 | 1.83 ± 0.22 | 1.5 ± 0.13 | 1.24 ± 0.12
QFKKLTHAQRTGLSQIP [PRP8] | 2.05 ± 0.11 | 2.46 ± 0.1 | 2.12 ± 0.14 | 2.53 ± 0.12
IGAVYSGMGPDYRVLVD [PRE8] | 3.67 ± 0.28 |  | 2.92 ± 0.3 | 3.38 ± 0.12

Sequence | protein stability index (doa10∆) | protein stability index (pdr5∆) | protein stability index (san1∆) | protein stability index (ubr1∆)
IRKGPAPLNLEIPAYEF [RIP1] | 2.76 ± 0.062 | 2.58 ± 0.083 | 2.67 ± 0.06 | 2.73 ± 0.062
RRRDFGAPANKRPRRGL [SMD1] | 2.84 ± 0.094 | 2.93 ± 0.084 | 3.38 ± 0.07 | 3.29 ± 0.089
LHANGASFFFMVMFMHM [COB] | 1.75 ± 0.037 | 1.36 ± 0.028 | 1.37 ± 0.065 | 1.38 ± 0.036
SEINEILARNDEEMAVL [SNF2] | 2.88 ± 0.18 | 2.64 ± 0.21 | 3 ± 0.17 | 3.16 ± 0.099
NRKVRAGRGFTLAEVKA [RPL13A] | 2.84 ± 0.054 | 2.97 ± 0.061 | 2.82 ± 0.043 | 2.48 ± 0.044
PFSEGVTFSVMPPKKSW [SMC4] | 2.48 ± 0.091 | 2.03 ± 0.074 | 2.2 ± 0.11 | 2.57 ± 0.077
AQGVAVQLKRQPAQPRE [RPL21A] | 1.66 ± 0.088 | 1.22 ± 0.081 | 1.61 ± 0.084 | 1.88 ± 0.07
SAQQNLASSFVNGFLNL [RPN1] | 2.73 ± 0.094 | 2.54 ± 0.067 | 3.1 ± 0.059 | 2.75 ± 0.068
WNRLTISVTDTEVERAK [COR1] | 3.19 ± 0.09 | 3.12 ± 0.076 | 3.08 ± 0.051 | 3.21 ± 0.085
EYKKHFPPNLEKGENPS [UBP6] | 2.9 ± 0.097 | 2.76 ± 0.055 | 2.42 ± 0.073 | 1.93 ± 0.053
DSSVEDSTDNENSGKEM [LIN1] | 3.04 ± 0.041 | 3.24 ± 0.069 | 3.41 ± 0.081 | 2.99 ± 0.031
ICEPKETLSIFTNVPLN [YJL039C/NUP192] | 2.1 ± 0.046 | 2.24 ± 0.042 | 2.54 ± 0.05 | 2.36 ± 0.037
LFGENDTSTQAYEEEEE [NUT1] | 3.34 ± 0.09 | 3.41 ± 0.095 | 3.5 ± 0.057 | 3.34 ± 0.075
GGALDNPFEDDMDGVDF [BRN1] | 3.39 ± 0.054 | 3.32 ± 0.077 | 3.4 ± 0.039 | 3.41 ± 0.057
LSPSDQFAPAFLNTPNN [SSN2] | 1.96 ± 0.069 | 2.23 ± 0.1 | 2.06 ± 0.13 | 2.44 ± 0.098
KLIIHRKNDNANDHDES [SMC3] |  | 1.73 ± 0.21 |  | 1.36 ± 0.11
PKKEYDDDAVRREVQIQ [NSL1] | 1.4 ± 0.18 | 2.11 ± 0.25 | 1.36 ± 0.29 | 2.38 ± 0.21
VDPFDSDEEESVLDEQE [SNU114] | 3.36 ± 0.095 | 3.5 ± 0.12 | 3.39 ± 0.15 | 3.36 ± 0.073
LTLRKAKAPSGLDQSRI [FAS1] | 3.05 ± 0.12 | 2.98 ± 0.11 | 3.17 ± 0.12 | 3.13 ± 0.081
ELTDNMSDFVPIDAGLN [MCD1] | 3.12 ± 0.11 | 2.99 ± 0.1 | 2.74 ± 0.081 | 3.21 ± 0.12
NETSEQLVPIRLEFDQD [SNF5] | 3.19 ± 0.097 | 3.12 ± 0.099 | 3.31 ± 0.11 | 3.29 ± 0.07
VTYALSGYVRSRGESDD [RPS21A] | 3.3 ± 0.22 | 3.07 ± 0.29 | 3.2 ± 0.16 | 3.3 ± 0.19
QGAKTYLERTLDTFIKI [PRE5] | 3.03 ± 0.081 | 3.18 ± 0.068 | 2.81 ± 0.067 | 3.21 ± 0.058
DGGYNAQLAKAKTELNE [SMC2] | 2.64 ± 0.092 | 1.94 ± 0.058 | 1.44 ± 0.072 | 1.5 ± 0.038
QQQSSQNTVPNVLNQIN [GAL11] | 1.66 ± 0.063 | 1.82 ± 0.053 | 1.71 ± 0.078 | 2.01 ± 0.042
SFTSQGTISIQLKNGLL [MTR3] | 2.66 ± 0.05 | 2.67 ± 0.047 | 2.69 ± 0.055 | 2.61 ± 0.032
MSDEDNNYDDFMLSDDE [RRI2] |  | 3.58 ± 0.23 | 3.28 ± 0.25 | 
